Data as given in patent US20030148445A1 (NATIONAL JEWISH MEDICAL AND RESEARCH CENTER, published 2003).

B1: Flag-sBCMA-Fc secreted fusion protein (Fc fusion)
chain: MLQMAGQCSQNEYFDSLLHACIPCQLRCSSNTPPLTCQRYCNASVTNSVKGTNAILWTCLGL
notes: Used as 50-fold concentrated conditioned medium of transfected 293 cells; also called soluble BCMA; not shown: N-terminal Flag tag; Fc fragment of immunoglobulin G1 (IgG1), from the pCMV1-Flag-Fc plasmid
B2: C-terminal HA epitope-tagged BCMA (BCMA-HA) (receptor, not shown: small tags and cut ends)
chain: MLQMAGQCSQNEYFDSLLHACIPCQLRCSSNTPPLTCQRYCNASVTNSVKGTNAILWTCLGLSLIISLAVFVLMFLLRKISSEPLKDEFKNTGSGLLGMANIDLEKSRTGDEIILPRGLEYTVEECTCEDCIKSKPKVDSDHCFPLPAMEEGATILVTTKTNDYCKSLPAALSATEIEKSISAR
notes: also called HA-BCMA; B Cell Maturation Protein

Columns and labels:
[1] = molecular target: T1, Flag-tagged sTALL-1 (Flag-sTALL-1) (human, UniProt Q9Y275 134-285); test: competition in flow cytometry on Bjab cells
T1 construct: Secreted from 293 cells transfected with pSec-Flag-sTALL-1; used as conditioned medium or purified on an anti-Flag column; also called soluble TALL-1
Experimental: As described in Examples 2 and 3, cell staining was performed by sequential incubation (each 40 minutes) with anti-Flag monoclonal antibody (1 μg/ml) and RPE-conjugated goat anti-mouse IgG (1:200 dilution) in staining buffer (D-PBS containing 2% fetal bovine serum). Cells were washed two times with staining buffer following each incubation.

[2] = molecular target: T2, TRADD (UniProt Q15628 1-312, limits assumed); test: co-immunoprecipitation from transfected 293 cell lysates with anti-Flag antibody, Western blot with anti-HA antibody
T2 sequence (looked up): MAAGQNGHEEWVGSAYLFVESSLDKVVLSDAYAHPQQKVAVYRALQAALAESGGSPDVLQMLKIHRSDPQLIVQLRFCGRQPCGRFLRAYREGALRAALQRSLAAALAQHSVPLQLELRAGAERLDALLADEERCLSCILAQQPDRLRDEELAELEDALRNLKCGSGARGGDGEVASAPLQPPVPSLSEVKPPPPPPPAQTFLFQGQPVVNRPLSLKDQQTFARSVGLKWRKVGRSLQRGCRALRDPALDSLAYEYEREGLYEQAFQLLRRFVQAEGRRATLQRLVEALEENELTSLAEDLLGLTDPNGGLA
Experimental: (§1) In the second portion of the experiment (See FIG. 10B), 293 cells were transfected with expression plasmids for HA-BCMA and the plasmids indicated in FIG. 10B. Transfected cell lysates were immunoprecipitated with anti-Flag antibody or control IgG. The immunoprecipitates were analyzed by Western blot with anti-HA antibody (FIG. 10B; upper panel).

[3] = molecular target: T3, TRAF2 (UniProt Q12933 1-501, limits assumed); test: as above
T3 sequence (looked up): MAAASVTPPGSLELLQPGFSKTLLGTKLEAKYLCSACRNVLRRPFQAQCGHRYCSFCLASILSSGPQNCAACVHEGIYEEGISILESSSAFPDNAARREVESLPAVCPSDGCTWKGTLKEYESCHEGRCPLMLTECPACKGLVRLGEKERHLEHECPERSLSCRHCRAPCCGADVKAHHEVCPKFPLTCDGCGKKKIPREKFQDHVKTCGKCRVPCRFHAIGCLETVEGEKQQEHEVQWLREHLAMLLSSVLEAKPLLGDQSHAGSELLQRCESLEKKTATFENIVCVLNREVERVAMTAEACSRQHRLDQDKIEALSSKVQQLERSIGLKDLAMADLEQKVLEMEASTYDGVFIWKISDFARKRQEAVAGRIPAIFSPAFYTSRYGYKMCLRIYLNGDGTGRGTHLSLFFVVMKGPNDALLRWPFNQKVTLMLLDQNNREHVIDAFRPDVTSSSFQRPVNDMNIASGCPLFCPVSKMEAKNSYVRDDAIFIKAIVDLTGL
Experimental: as §1

[4] = molecular target: T4, RIP (UniProt Q13546 1-671, limits assumed); test: as above
T4 sequence (looked up): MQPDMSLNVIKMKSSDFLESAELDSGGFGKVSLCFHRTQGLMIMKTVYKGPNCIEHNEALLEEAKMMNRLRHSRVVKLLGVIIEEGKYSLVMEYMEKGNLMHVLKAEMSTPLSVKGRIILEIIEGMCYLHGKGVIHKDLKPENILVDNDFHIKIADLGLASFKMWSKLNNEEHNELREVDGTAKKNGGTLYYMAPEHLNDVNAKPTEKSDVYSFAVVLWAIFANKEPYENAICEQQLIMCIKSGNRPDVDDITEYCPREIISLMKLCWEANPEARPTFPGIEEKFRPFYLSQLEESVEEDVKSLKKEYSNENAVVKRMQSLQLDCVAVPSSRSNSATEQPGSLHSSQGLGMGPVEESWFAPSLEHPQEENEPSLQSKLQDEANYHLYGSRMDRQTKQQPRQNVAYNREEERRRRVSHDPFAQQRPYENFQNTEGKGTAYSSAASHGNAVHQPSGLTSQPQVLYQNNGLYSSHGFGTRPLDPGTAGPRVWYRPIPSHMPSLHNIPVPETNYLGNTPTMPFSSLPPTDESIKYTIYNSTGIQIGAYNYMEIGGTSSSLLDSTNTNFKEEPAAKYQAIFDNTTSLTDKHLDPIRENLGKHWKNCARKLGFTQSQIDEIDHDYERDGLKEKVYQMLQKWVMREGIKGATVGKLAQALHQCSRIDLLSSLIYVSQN
Experimental: as §1

[5] = molecular target: T5, Flag-tagged soluble TRAIL (Flag-sTRAIL) (UniProt P50591 95-281, limits assumed); test: co-immunoprecipitation with anti-HA antibody, Western blot with anti-Flag antibody
T5 construct: not shown: Flag tag
Experimental: (§2) 24 hours after transfection, cells were lysed in 1.0 ml lysis buffer (20 mM Tris [pH 7.5], 150 mM NaCl, 1% Triton, 1 mM EDTA, 10 μg/ml aprotinin, 10 μg/ml leupeptin, 1 mM PMSF). […] The mixtures were split into 2 aliquots and each aliquot was incubated with 0.5 μg anti-HA monoclonal antibody (BABCO, Berkeley, Calif.) (FIG. 6A; lanes 2,4,6,8) or control mouse IgG (FIG. 6A; lanes 1, 3, 5, 7), and 25 μl of a 1:1 slurry of GammaBind G Plus Sepharose at 4° C. for 3 hours. The sepharose beads were washed three times with 1 ml lysis buffer containing 500 mM NaCl. The precipitates were analyzed by Western blot with anti-Flag antibody (FIG. 6A; upper panel). […] All conditioned medium was supplemented with 10 mM Tris (pH 7.5), 100 mM NaCl, 1 mM EDTA, 10 μg/ml aprotinin, 10 μg/ml leupeptin, and 1 mM PMSF before TH immunoprecipitation experiments. Western blots were performed as described above.

[6] = molecular target: T1, Flag-tagged sTALL-1 (Flag-sTALL-1); test: as above
Experimental: as §2

T1 sequence (Q9Y275 134-285): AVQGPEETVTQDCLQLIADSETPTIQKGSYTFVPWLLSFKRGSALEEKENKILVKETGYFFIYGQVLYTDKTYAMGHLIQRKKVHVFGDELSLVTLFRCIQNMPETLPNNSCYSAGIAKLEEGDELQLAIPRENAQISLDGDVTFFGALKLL
T5 sequence (P50591 95-281 limits assumed): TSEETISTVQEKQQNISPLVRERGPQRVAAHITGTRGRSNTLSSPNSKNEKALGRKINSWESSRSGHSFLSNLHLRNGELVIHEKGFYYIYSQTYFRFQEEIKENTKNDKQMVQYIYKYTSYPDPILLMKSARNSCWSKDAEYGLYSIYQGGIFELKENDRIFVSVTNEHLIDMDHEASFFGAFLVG

Binder	binding result [1]	binding result [2]	binding result [3]	binding result [4]	binding result [5]	binding result [6]
B1	binds	–	–	–	–	–
B2	–	no binding	no binding	no binding	no binding (tested: 0.1 µg recombinant Flag-sTRAIL)	binds
